This test deals with CCR1-rHDL (human C-C chemokine receptor 1 with C-terminal 1D4 tag, in reconstituted high density lipoprotein) (human) (UniProt P32246). The experiment in a line: SPR; CCR1-rHDL captured via immobilised 1D4 antibody on a CM5 chip (~3000 RU); MIP-1α variant flowed at 0.13-5.0 μM; 25 °C; 20 mM HEPES, pH 7.2, 100 mM NaCl; empty-rHDL on the control flow cell; steady-state fit.
Sequence of UniProt P32246 (P32246 whole entry): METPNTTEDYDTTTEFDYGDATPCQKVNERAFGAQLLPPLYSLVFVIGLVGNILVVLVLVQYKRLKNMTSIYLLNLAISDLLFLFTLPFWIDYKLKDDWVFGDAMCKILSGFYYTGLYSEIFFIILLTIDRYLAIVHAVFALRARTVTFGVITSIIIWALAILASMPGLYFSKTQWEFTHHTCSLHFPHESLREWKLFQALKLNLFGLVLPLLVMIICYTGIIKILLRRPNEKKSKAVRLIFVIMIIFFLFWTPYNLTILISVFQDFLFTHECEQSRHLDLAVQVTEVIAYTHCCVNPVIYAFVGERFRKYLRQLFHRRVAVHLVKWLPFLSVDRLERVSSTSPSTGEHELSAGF

On to MIP-1α variant (P8A/F13Y/E67Q) (ligand), for which the Kd was 2 µM.
